Reference: US20210079037A1, “LIGHT-SWITCHABLE POLYPEPTIDE AND USES THEREOF” (TECHNISCHE UNIVERSITÄT MÜNCHEN, priority 2017, published 2021)
Numbered stars: 1 amine (or outer) side, 2 acyl side, 3 side chain; on linkers, the order of the positions; unused ones are H or OH. Square brackets hold non-standard residues; d marks the D form. Caf = 4′-carboxyphenylazophenylalanine, O=C([C@H](Cc1ccc(/N=N/c2ccc(C(=O)[*:3])cc2)cc1)N[*:1])[*:2]

Target: mouse anti-6×His antibody alkaline phosphatase (AP) conjugate (Arigo Biolaboratories)
Assay: ELISA, curve fit; ProtL^Caf337-ABD in a dilution series on HSA-coated plate, Ig-AP conjugate at 1:1000; ground state (trans-Caf)

B1: ProtL^Caf337-ABD (designed binder)
chain: MKEEVTIKVNLI[Caf]ADGKTQTAEFKGTFEEATAKAYANADLSAKENGEYTADLEDGGNTINIKFAGGAVDANSLAEAKVLANRELDKYGVSDYYKNLINNAKTVEGVKALIDEILAALP
- Kd: 140 nM
